# Patent US20260132208A1 (DOMAIN THERAPEUTICS, published 2026)
# Positions count from the first letter of the chain named. “And” between values parts separate entries of the source, which are not always exact repeats. Identical values can stand only once.
# B1: Ref #1 (antibody, human IgG1, V domains shown)
# VH: EVQLLESGGGLVQPGGSLRLSCAASGFTFSSYGMHWVRQAPGKGLEWVSAINWNGGSTGYADSVKGRFTISRDNSKNTLYLQMNSLRAEDTAVYYCARGHHSGYDGRFFDYWGQGTLVTVSS
# VL: QSVLTQPPSVSGAPGQRVTISCTGSSSNIGAGYNVHWYQQLPGTAPKLLIYTNNRRPSGVPDRFSGSKSGTSASLAISGLRSEDEADYYCAAWDASLSGWVFGGGTKLTVL
# notes: Benchmark; cloned into vectors encoding heavy and light chains of human IgG1, produced in CHO; also called TPP-21360 of WO 2021/260210
# B2: anti-CCR8 mAb 1-28 (antibody, human IgG1, kappa, V domains shown)
# VH: EVQLVESGGGLVQPTGSLRLSCAASGFTFNAYAMNWVRQAPGKGLEWVARIRSKSNDYATYYGDSVKDRFTISRDDSQSMLYLQMNNLKTEDTAMYYCVRGREAYYRYDGGYYAMDYWGQGTSVTVSS
# VL: DIVMTQAAPSVSVTPGESVSISCTSSKSLLHSNGNTYLYWFLQRPGQSPQLLIYRMSNLASGVPDRFSGSGSGTAFTLRISRVEAEDVGVYYCMQHREYPFTFGSGTKLEIKR
# B3: anti-CCR8 mAb 1-3 (antibody, V domains shown)
# VH: KVQLQQSGPELVKPGASVKISCKTSGYTFTEYTIHWVQQIHGKSPEWIGGINPNGDTRYDQKFKGKATLTIDKSSSTAYMELRSLTSEDSAVYYCARVARFYGISPYAMDYWGQGTSVTVSS
# VL: DVVMTQTPLSLPVSLGDQASISCRCTQSLLHSNGDTYLHWYLQKPGQSPNLLIYKVSNRFSGVPDRFSGSGSGTDFTLKINRVEAEDLGVYFCSQSTHVPYTFGGGTNLEIK
# notes: Murine hybridoma mAb
# B4: anti-CCR8 mAb 1-5 (antibody, V domains shown)
# VH: QVQLKESGPGLVAPSQSLSITCTVSGLSMNDYVVTWIRQPPGKGLEWLGVIWGGGNTYYNSDLKSRLSITKDNSKSQVFFKMSSLQTDDTAVYYCARRHRDYALDYWGQGISVTVSS
# VL: B3 VL with C25S, T26S, L30V, H31Y, D35N, N50K, N81S, H98Y, Y101P, N108K
# notes: Murine hybridoma mAb
# B5: Ref #3 (antibody, human IgG1, V domains shown)
# VH: EVQLVESGGGLVQPGGSLKLSCAASGFTFNTYAMNWVRQASGKGLEWVARIRSKANNYATYYADSVKDRFTISRDDSKNTLYLQMNNLKTEDTAVYYCVRDRSRGEDYAMDYWGQGTLVTVSS
# VL: DIVMTQSPLSLPVTPGEPASISCRSSKSLLHSNANTYLYWFLQKPGQSPQLLIYRMSNLASGVPDRFSGSGSGTAFTLKISRVEAEDVGVYYCMQHLEYPFTFGQGTKLEIK
# B6: anti-CCR8 mAb 1-18 (antibody, V domains shown)
# VH: QVQVQQSGAELARPGASVKMSCKASGYTFTTYAMHWVKQRPGQGLEWIGHINPSSGYSNYNQKFKDKATLTADKSSSTAYMQLSSLTSEDSAVYYCARSEVRRGYFDVWGAGTTVTVSS
# VL: DIQMTQTTSSLSASLGDRVTISCRTSQDIRNYLNWYQQKPDGTVKLLISYTSRLHSGVPSRFSGSGSGTDYSLTISNLEQEDFATYFCQQGNTLPPTFGGGTRVEIK
# notes: Murine hybridoma mAb
# How the values were obtained:
# [1] = target: T1, human CCR8 with a SNAP-tag at the N-terminus (human, UniProt P51685 1-355, SNAP-tag labelled covalently with Lumi4-Terbium); assay: cell-based or functional assay
# human CCR8 [2] = target: T2, human CCR8 (human, UniProt P51685 1-355); assay: flow cytometry, inhibition of hCCL1-AF647 (10 nM) binding to hCCR8-CHO cells
# T2 construct: also called hCCR8; CC chemokine receptor 8
# Procedure, shortened: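 hCCR8-transfected CHO cells preincubated 30 min at 4 °C with anti-CCR8 mAb (8 concentrations, top 10 μg/mL, 1/3 dilutions), washed, then exposed to labelled CCL1. Bound CCL1 quantified by flow cytometry; IC₅₀ of binding blockade from sigmoidal variable-slope fit.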
# human CCR8 [3] = target: T2, human CCR8; assay: cell-based or functional assay
# human CCR8 [4] = target: T2, human CCR8; assay: flow cytometry, hCCR8-transfected CHO-K1 cells
# Procedure, shortened: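 Bound mAb was detected with Alexa Fluor 488 anti-mouse IgG or PE anti-human IgG Fc by flow cytometry, with isotype controls. EC50 came from a four-parameter fit.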
# [5] = target: T1, human CCR8 with a SNAP-tag at the …; assay: HTRF Tag-lite, inhibition of hCCL1-AF647 binding to SNAP-hCCR8 on HEK-293 cells
# Protocol: The inhibition of CCL1 binding to hCCR8 was evaluated with the Tag-Lite® technology from Cisbio (Revvity). Human CCR8 is engineered with a SNAP-tag at the N-terminus of the GPCR. hCCR8 SNAP-tag is transiently transfected on HEK-293 cell line using FuGene® (Promega, Madison, WI, USA). 48 hours after transfection, cells are labeled with the substrate Lumi4-Terbium® (Cisbio, Codolet, France) which covalently reacts with the SNAP-tag, for 1 h at 37° C. Thawed or freshly labeled cells are plated in a 384 low volume white plate (GREINER Bio-One, Courtaboeuf, France) (10000 cells/well/10 μl). […] The Kd was previously obtained in a saturation binding assay on the same cells. […] The plate is next incubated at 21° C. for 2 h. Detection of HTRF signal is performed on the multiplate reader EnVision (PerkinElmer, Waltham, MA, USA). The HTRF (665/620) ratio is calculated by EnVision software, the data exported are considered as the total binding. The specific binding is calculated then by subtracting the non-specific signal from the total binding. The Ki and IC₅₀ are calculated using the “One site-Fit Ki” and “One site-FitlogIC50” from GraphPad Prism 9 (Graphpad Software, San Diego, CA, USA), respectively.
# human CCR8 [6] = target: T2, human CCR8; assay: cell-based or functional assay; remark: listed apart in the source
# human CCR8 [7] = target: T2, human CCR8; assay: cell-based or functional assay; remark: listed apart in the source
# human CCR8 [8] = target: T2, human CCR8; assay: cell-based or functional assay; remark: listed apart in the source
# human CCR8 [9] = target: T2, human CCR8; assay: cell-based or functional assay; remark: listed apart in the source
# pm2 = target: T3, pm2 (sulfated tyrosine(s) among Y15, Y16, Y17; which ones is not told (the underlining of Table 1 is lost in the text)); assay: ELISA on coated peptide [cont.]
# T3 construct: also called sulfated CCR8 N-terminal peptide pm2
# Procedure, shortened: (§1)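 CCR8-related peptides were coated at 500 ng/ml in carbonate/bicarbonate buffer, and each anti-CCR8 mAb was applied at 1 μg/mL and then at a 1/10 dilution. After 90 min at room temperature and washing, TMB was developed for 15 min and optical density was taken as mAb reactivity.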
# pm8 = target: T4, pm8 (Y15, Y16 and Y17 sulfated); assay: ELISA on coated peptide [cont.]
# T4 construct: also called sulfated CCR8 N-terminal peptide pm8
# Procedure, shortened: as §1
# pm4 = target: T5, pm4 (sulfated tyrosine(s) among Y15, Y16, Y17; which ones is not told (the underlining of Table 1 is lost in the text)); assay: ELISA on coated peptide [cont.]
# T5 construct: also called sulfated CCR8 N-terminal peptide pm4
# Procedure, shortened: as §1
# pwt1 = target: T6, pwt1 (none (unmodified peptide)); assay: ELISA on coated peptide [cont.]
# T6 construct: also called unmodified CCR8 N-terminal peptide
# Procedure, shortened: as §1
# pm6 = target: T7, pm6 (Y16 and Y17 sulfated; Y15 not sulfated); assay: ELISA on coated peptide [cont.]
# T7 construct: also called sulfated CCR8 N-terminal peptide pm6
# Procedure, shortened: as §1
# pm3 = target: T8, pm3 (Y17 sulfated; Y15 and Y16 not sulfated); assay: ELISA on coated peptide [cont.]
# T8 construct: also called sulfated CCR8 N-terminal peptide pm3
# Procedure, shortened: as §1
# pm5 = target: T9, pm5 (Y15 and Y17 sulfated; Y16 not sulfated); assay: ELISA on coated peptide [cont.]
# T9 construct: also called sulfated CCR8 N-terminal peptide pm5
# Procedure, shortened: as §1
# pm1 = target: T10, pm1 (sulfated tyrosine(s) among Y15, Y16, Y17; which ones is not told (the underlining of Table 1 is lost in the text)); assay: ELISA on coated peptide [cont.]
# T10 construct: also called sulfated CCR8 N-terminal peptide pm1
# Procedure, shortened: as §1
# T8 sequence (peptide, as listed by the source): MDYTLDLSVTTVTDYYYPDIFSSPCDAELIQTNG
# T4 sequence (peptide, as listed by the source): as above
# T10 sequence (peptide, as listed by the source): as above
# T7 sequence (peptide, as listed by the source): as above
# T3 sequence (peptide, as listed by the source): as above
# T9 sequence (peptide, as listed by the source): as above
# T6 sequence (peptide, as listed by the source): as above
# T5 sequence (peptide, as listed by the source): as above
Binder,"% hCCR8 internalization with CCL1 300 nM, mAb 1 µg/ml (HTRF) [1] [%]","% hCCR8 internalization with CCL1 300 nM, mAb 10 µg/ml (HTRF) [1] [%]",IC50 (human CCR8 [2]),"IC50 of CCL1-induced hCCR8 Gi2 signaling (BRET, HEK-293) (human CCR8 [3])",% positive cells (human CCR8 [4]) [%],"residual hCCL1 (100 nM) Gi2 response, protocol #2, mAb 0.08 µg/mL (human CCR8 [7]) [%]","residual hCCL1 (100 nM) Gi2 response, protocol #2, mAb 0.4 µg/mL (human CCR8 [7]) [%]","residual hCCL1 (100 nM) Gi2 response, protocol #2, mAb 10 µg/mL (human CCR8 [7]) [%]","residual hCCL1 (100 nM) Gi2 response, protocol #3, mAb 0.05 µg/mL (human CCR8 [7]) [%]","residual hCCL1 (100 nM) Gi2 response, protocol #3, mAb 0.5 µg/mL (human CCR8 [7]) [%]","residual hCCL1 (100 nM) Gi2 response, protocol #3, mAb 5 µg/mL (human CCR8 [7]) [%]","extrapolated top plateau of hCCL1 curve with 5 µg/mL mAb, protocol #3 (human CCR8 [8])",MFI fold change to isotype ctrl (human CCR8 [4]) [fold],binding result (pm2),binding result (pm8),binding result (pwt1),binding result (pm6),binding result (pm3),binding result (pm5),binding result (pm1),other results
B1,126,111,0.65 µg/mL,0.101 µg/mL and 0.675 nM,75.1,–,–,–,–,–,–,–,–,–,–,–,–,–,–,–,IC50 [5]: 0.45 µg/mL; Ki [5]: 0.23 µg/mL
B2,–,–,–,–,–,–,–,–,–,–,–,–,–,–,–,–,–,–,–,–,"ADCC % max lysis, HUT78 targets, NK donor 1 (human CCR8 [6]): 31%; ADCC % max lysis, HUT78 targets, NK donor 2 (human CCR8 [6]): 26%; ADCC EC50, HUT78 targets, NK donor 1 (human CCR8 [6]): 0.0733 nM; ADCC EC50, HUT78 targets, NK donor 2 (human CCR8 [6]): 0.0904 nM"
B3,–,–,1.29 µg/mL and 8.62 nM,0.069 µg/mL and 0.462 nM,85.7,101,93,100,92,81,73,663 % of hCCL1 (100 nM),9.8,binds,binds,binds,binds,binds,binds,binds,"IC50 of CCL1-induced hCCR8 Gi2 signaling (BRET), pH 6.5 (human CCR8 [9]): 0.051 µg/ml and 0.34 nM; IC50 of CCL1-induced hCCR8 Gi2 signaling (BRET), pH 7.4 (human CCR8 [9]): 0.059 µg/ml and 0.396 nM; binding result (pm4): binds"
B4,–,–,15.2 nM and 2.65 µg/mL,0.143 µg/mL and 0.954 nM,85.2,99,97,97,99,84,75,133 % of hCCL1 (100 nM),11.9,binds,binds,binds,binds,binds,binds,binds,"IC50 of CCL1-induced hCCR8 Gi2 signaling (BRET), pH 6.5 (human CCR8 [9]): 0.414 µg/ml and 2.76 nM; IC50 of CCL1-induced hCCR8 Gi2 signaling (BRET), pH 7.4 (human CCR8 [9]): 0.359 µg/ml and 2.4 nM"
B5,95,103,–,–,–,–,–,–,–,–,–,–,–,–,–,–,–,–,–,–,–
B6,–,–,0.22 µg/mL and 1.46 nM,0.004 µg/mL and 0.029 nM,77,52,68,53,76,62,59,948 % of hCCL1 (100 nM),9.2,binds,binds,binds,binds,binds,binds,binds,binding result (pm4): binds
